The subject of one assay is UPEC biofilm. Put plainly: in vitro disruption of established biofilms, CLSM and COMSTAT. It is filed as cell-based, Uropathogenic E. coli. The conditions noted are these: added at 24 h, 16 h exposure; 200 nM unless stated. The protocol: (§1) FIGS. 5A-5E: Anti-biofilm effect of HMGB1 variants on high priority bacterial pathogens. Indicated HMGB1 variants or antibodies against DNABII proteins (α-1HFEc 1gG, 1 μM) were added at 24 h to the respective preformed bacterial biofilms, in vitro. After 16 h of Incubation, biofilms were stained with LIVE/DEAD®, then visualized via confocal laser scanning microscopy. Images were analyzed by COMSTAT to calculate average thickness and comparison to control was plotted. (FIG. 5A) Full-length HMGB1 isoforms (200 nM unless otherwise indicated) added to UPEC, B. cenocepacia, NTHI, or ESKAPE pathogens. 800 nM rHMGB1 and 200 nM mHMGB1 were added for S. aureus (ESKAPE). 800 nM rHMGB1, 800 nM mHMGB1, or 3.3 μM of α-1HFEc 1gG were added for E. faecium (ESKAPE) and were incubated for 1 h as opposed to 16 h to avoid potential degradation by E. faecium proteases. (FIG. 5B) Representative images of UPEC biofilms incubated with increasing concentrations of rHMGB1. (FIG. 5C) Individual domains of HMGB1 (200 nM) were tested for anti-biofilm activity as above (dotted line indicates control values). Bars represent the SEM. Statistical significance compared to control was assessed with unpaired t-tests, *P<0.05. […] (FIGS. 5D-5E) HMGB1 and variants disrupt preformed Klebsiella pneumoniae biofilms. rHMGB1, HMGB1 C45S (mHMGB1), bovine HMGB1 (bHMGB1), B box, B Box C106S (mB Box), A Box, and A+B Box were added (200 nM) at 24 h to preformed K. pneumoniae biofilms. After 16 h of incubation, biofilms were stained with LIVE/DEAD®, then visualized via confocal laser scanning microscopy. Images were analyzed by COMSTAT to calculate average thickness and total biomass. Error bars represent the SEM. ***P<0.0001; ns=not significant.
(§2) HMGB1 disrupts pathogenic biofilms: To test the effect of HMGB1 on bacterial biofilms (FIG. 5), Applicant cloned (IMPACT®, NEB Ipswich, MA), expressed (in E. coli), and purified (heparin sepharose chromatography to >95% purity) tagless human recombinant HMGB1 (rHMGB1) and an engineered C45 S variant (mHMGB1) that mimics the reduced form of HMGB1. rHMGB1 readily forms an intramolecular disulfide bond between C23 and C45 that contributes to pro-inflammatory activity whereas mHMGB1 cannot. These HMGB1 isoforms were evaluated for ability to disrupt established biofilms (formed for 24 h prior to addition). After a 16 h exposure to a single dose of rHMGB1 (200 nM; ˜25-fold greater than typical sepsis serum concentration, but not able to directly induce sepsis), biofilms formed by a wide variety of high priority species were stained with LIVE/DEAD®, analyzed using confocal laser scanning microscopy (CLSM) and COMSTAT analysis and compared to control biofilms. […] Preliminary analysis of PTMs by LC-MS/MS analysis (MS Bioworks, LLC Ann Arbor, MI) indicated minimal modification of both rHMGB1 and nHMGB1 (<20% of the observed peptides had any given PTM, FIG. 1C). […] Thus, while there are intrinsic differences in sensitivity among pathogens, the biofilms formed by all of the tested high priority pathogens were susceptible to a single dose of these non-antimicrobial compounds.
HMGB1 domain structure and anti-biofilm activity: Applicant then produced recombinant HMGB1 truncation variants, of 1) the A Box, a self-contained DNA-binding domain (residues 1-89); 2) an A-B Boxes construct (lacks the C tail; residues 1-185); and 3) the B Box (residues 80 to 176, FIGS. 1A and 1C). […] Since only the B Box can modulate DNA bending, without being bound by theory, it was hypothesized that HMGB1 disrupts biofilms at least in part via DNA-binding/bending. As the B Box is reported to contain pro-inflammatory activity, mediated primarily through interactions with TLR4-MD2 that are dependent on residue C106, Applicant created a modified B Box variant (mB Box) with a C106S mutation (FIGS. 1A and 1C).

The subject of a further assay is NTHI biofilm. The description is as above. It is filed as cell-based, Nontypeable Haemophilus influenzae. The conditions noted are these: 200 nM added at 24 h, 16 h exposure. The protocol: as §1, §2
HMGB1 domain structure and anti-biofilm activity: Applicant then produced recombinant HMGB1 truncation variants, of 1) the A Box, a self-contained DNA-binding domain (residues 1-89); 2) an A-B Boxes construct (lacks the C tail; residues 1-185); and 3) the B Box (residues 80 to 176, FIGS. 1A and 1C). […]

Assay [1] concerns Klebsiella pneumoniae biofilms. Put plainly: in vitro disruption of pre-formed biofilms, LIVE/DEAD, CLSM and COMSTAT. The conditions noted are these: for disruption of established K. pneumoniae biofilms (average thickness, biomass): 200 nM added at 24 h, 16 h incubation; for % reduction in average thickness (AT), mean±SE / % reduction in biomass (BM), mean±SE: 200 nM added to pre-formed biofilms at 24 h, read at 40 h, vs untreated KP biofilms. It is filed as cell-based. The method, then:
as §1
An in vitro biofilm assay was used to test the effect of HMGB1 and its variants on established bacterial biofilms. Applicant expressed, (in E. coli) and purified >95% human recombinant full length HMGB1 (rHMGB1; 1-215), a C45S mutated variant (mHMGB1) and the HMGB1 domains A Box (1-89), A+B Boxes (1-176), B Box (80-179), and B Box C106S (mB Box) (FIG. 3). […] To evaluate the effect of HMGB1 and its variants as well as a commercially available native bovine HMGB1 (used as a control) on established bacterial biofilms, each protein was added (at 200 nM), to pre-formed Klebsiella pneumoniae biofilms after 24 h of growth. After a 16 h incubation (40 h total biofilm growth), the biofilms were stained with LIVE/DEAD® and analyzed using confocal laser scanning microscopy (CLSM) and COMSTAT analysis to calculate the average thickness and total biomass of the biofilms. […] The results of this study lead to a noteworthy observation that a single dose of these non-antimicrobial compounds was able to disrupt recalcitrant biofilms. In addition, the HMGB1 variants have disrupted every bacterial species tested to date, which includes Uropathogenic E. coli, Burkholderia cenocepacia, Nontypeable Haemophilus influenzae (FIG. 6). A single dose at this concentration released of bacteria from their protective shield makes them vulnerable to clearance by antibiotics and the immune system.
Klebsiella pneumoniae (KP), a common cause of nosocomial infections was used for all BBs disruption assays. Human recombinant full length HMGB1 (rHMGB1; 1-215), a C45S mutation variant (mHMGB1) and the HMGB1 domains A Box (1-89), B Box (90-176), AB Boxes (1-176), B-linker Box (80-179), and B-linker Box C106S were expressed (in E. coli) and purified to >95%. To evaluate the effect of rHMGB1 and the various domains on established BBs, each protein species (200 nM) was added to pre-formed BBs at 24 h. At 40 h the BBs were washed, stained with LIVE/DEAD®, visualized via confocal laser scanning microscopy and images were analyzed by COMSTAT to calculate average thickness and biomass.

The subject of a further assay is B. cenocepacia biofilm. It is filed as cell-based, Burkholderia cenocepacia. The conditions noted are these: 200 nM added at 24 h, 16 h exposure.

Protocol for B. cenocepacia biofilm: Indicated HMGB1 variants or antibodies against DNABII proteins (α-1HFEc 1gG, 1 μM) were added at 24 h to the respective preformed bacterial biofilms, in vitro. After 16 h of Incubation, biofilms were stained with LIVE/DEAD®, then visualized via confocal laser scanning microscopy. Images were analyzed by COMSTAT to calculate average thickness and comparison to control was plotted. (FIG. 5A) Full-length HMGB1 isoforms (200 nM unless otherwise indicated) added to UPEC, B. cenocepacia, NTHI, or ESKAPE pathogens. 800 nM rHMGB1 and 200 nM mHMGB1 were added for S. aureus (ESKAPE). 800 nM rHMGB1, 800 nM mHMGB1, or 3.3 μM of α-1HFEc 1gG were added for E. faecium (ESKAPE) and were incubated for 1 h as opposed to 16 h to avoid potential degradation by E. faecium proteases. […] (FIG. 5C) Individual domains of HMGB1 (200 nM) were tested for anti-biofilm activity as above (dotted line indicates control values). Bars represent the SEM. Statistical significance compared to control was assessed with unpaired t-tests, *P<0.05. […] After 16 h of incubation, biofilms were stained with LIVE/DEAD®, then visualized via confocal laser scanning microscopy. Images were analyzed by COMSTAT to calculate average thickness and total biomass. Error bars represent the SEM. ***P<0.0001; ns=not significant.

B1: nHMGB1: native HMGB1 purified from calf thymus (Chondrex, Inc), commercially available, used as a control (protein, UniProt P10103 2-215, looked up)
High mobility group protein B1: GKGDPKKPRGKMSSYAFFVQTCREEHKKKHPDASVNFSEFSKKCSERWKTMSAKEKGKFEDMAKADKARYEREMKTYIPPKGETKKKFKDPNAPKRPPSAFFLFCSEYRPKIKGEHPGLSIGDVAKKLGEMWNNTAADDKQPYEKKAAKLKEKYEKDIAAYRAKGKPDAAKKGVVKAEKSKKKKEEEEDEEDEEDEEEEEDEEDEEEEEDDDDE
Regarding B1, the “disruption of established UPEC biofilms” value with UPEC biofilm is “equivalently disrupted”. Besides, in the assay with NTHI biofilm, the “disruption of established NTHI biofilms” value is given as “equivalently disrupted”. In addition, the “disruption of established K. pneumoniae biofilms (average thickness, biomass)” value (“disruption … (average thickness, biomass)” below) in assay [1] is on record as “equivalently disrupted”. Moreover, the “disruption of established Bc biofilms” value in the assay on B. cenocepacia biofilm was “equivalently disrupted”.

B2: B-Box: HMGB1 domain B Box (90-176), listed beside B-linker Box in Experiment No. 1 (protein, UniProt P09429 90-176, looked up, fragment)
chain: KDPNAPKRPPSAFFLFCSEYRPKIKGEHPGLSIGDVAKKLGEMWNNTAADDKQPYEKKAAKLKEKYEKDIAAYRAKGKPDAAKKGVV
Turning to B2, in assay [1], the “% reduction in average thickness (AT), mean±SE” value is reported as 63%±0.1 and the “% reduction in biomass (BM), mean±SE” value is given as 68%±0.02.

B3: A Box: HMGB1 domain A Box (1-89) with C-terminal linker, lacks B box and C tail (protein, UniProt P09429 1-89, looked up, fragment)
chain: MGKGDPKKPRGKMSSYAFFVQTCREEHKKKHPDASVNFSEFSKKCSERWKTMSAKEKGKFEDMAKADKARYEREMKTYIPPKGETKKKF
modifications: C-terminal linker
notes: HMGB1 domain A Box (1-89) with C-terminal linker, lacks B box and C tail
For the molecule B3, in the assay with UPEC biofilm, the “disruption of established UPEC biofilms” value is given as “no significant effect”. Besides, in the assay with NTHI biofilm, the “disruption of established NTHI biofilms” value is listed as “no significant effect”. The “disruption … (average thickness, biomass)” value in assay [1] was “no significant effect”. The “disruption of established Bc biofilms” value in the assay on B. cenocepacia biofilm was “no significant effect”.

B4: AB Boxes: HMGB1 A and B domains (1-176), lacks the C tail (protein, UniProt P09429 1-176, looked up, fragment)
chain: MGKGDPKKPRGKMSSYAFFVQTCREEHKKKHPDASVNFSEFSKKCSERWKTMSAKEKGKFEDMAKADKARYEREMKTYIPPKGETKKKFKDPNAPKRPPSAFFLFCSEYRPKIKGEHPGLSIGDVAKKLGEMWNNTAADDKQPYEKKAAKLKEKYEKDIAAYRAKGKPDAAKKGVV
Consider B4, for which the “disruption of established UPEC biofilms” value with UPEC biofilm was “retained full anti-biofilm activity”. The “disruption of established NTHI biofilms” value in the assay with NTHI biofilm is “retained full anti-biofilm activity”. Besides, in assay [1], the “disruption … (average thickness, biomass)” value is recorded as “retained full anti-biofilm activity”; the “% reduction in average thickness (AT), mean±SE” value was 64%±0.08; the “% reduction in biomass (BM), mean±SE” value is 73%±0.02. In the assay with B. cenocepacia biofilm, the “disruption of established Bc biofilms” value is listed as “retained full anti-biofilm activity”.

The record behind these values is patent US12365710B2, “HMGB1 protein derivatives for the removal of biofilms” (RESEARCH INSTITUTE AT NATIONWIDE CHILDREN'S HOSPITAL, priority 2018, dated 2025).
